Laboratory results published in US20230416330A1, “Optimized GIP Peptide Analogues” (Antag Therapeutics ApS, priority 2019, published 2023).
Starred links: 1 amine or outer side, 2 acyl side, 3 side chain; linkers in the order of their positions; H or OH if unused. Non-standard residues stand in square brackets, D forms with d. Groups on a side chain read outwards from the residue. No end group written: not given here. *: point of attachment. C18 diacid = O=C(O)CCCCCCCCCCCCCCCCC(=O)*; C16 diacid = O=C(O)CCCCCCCCCCCCCCC(=O)*; γGlu = O=C(O)[C@H](CCC(=O)[*:2])N[*:1]; Glutaryl = O=C(CCCC(=O)[*:2])[*:1]; Nle = CCCC[C@H](N)C(=O)O; AEEA = NCCOCCOCC(=O)O; Aib = CC(C)(N)C(=O)O

T1: human GIP receptor (human, UniProt P48546 22-466)
T1 sequence (looked up): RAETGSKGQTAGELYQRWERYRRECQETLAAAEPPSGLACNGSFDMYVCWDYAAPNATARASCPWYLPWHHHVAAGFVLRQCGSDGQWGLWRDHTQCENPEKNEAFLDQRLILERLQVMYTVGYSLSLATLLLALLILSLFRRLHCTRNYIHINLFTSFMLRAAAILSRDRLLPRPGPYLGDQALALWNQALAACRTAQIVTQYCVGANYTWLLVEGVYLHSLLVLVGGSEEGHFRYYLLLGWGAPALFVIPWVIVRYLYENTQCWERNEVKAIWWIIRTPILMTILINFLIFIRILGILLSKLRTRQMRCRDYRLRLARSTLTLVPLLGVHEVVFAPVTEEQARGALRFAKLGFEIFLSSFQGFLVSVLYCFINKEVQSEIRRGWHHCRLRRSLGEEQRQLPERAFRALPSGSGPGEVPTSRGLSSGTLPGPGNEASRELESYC

B1: AT696 (peptide)
peptide: EGTFISEYSI[Aib][Nle]EKIK([AEEA-AEEA-γGlu-C18 diacid])QQEFVEWLLAQKPSSGAPPPS-OH
modifications: N-terminus assumed
SMILES: CCCC[C@H](NC(=O)C(C)(C)NC(=O)[C@@H](NC(=O)[C@H](CO)NC(=O)[C@H](Cc1ccc(O)cc1)NC(=O)[C@H](CCC(=O)O)NC(=O)[C@H](CO)NC(=O)[C@@H](NC(=O)[C@H](Cc1ccccc1)NC(=O)[C@@H](NC(=O)CNC(=O)[C@@H](N)CCC(=O)O)[C@@H](C)O)[C@@H](C)CC)[C@@H](C)CC)C(=O)N[C@@H](CCC(=O)O)C(=O)N[C@@H](CCCCN)C(=O)N[C@H](C(=O)N[C@@H](CCCCNC(=O)COCCOCCNC(=O)COCCOCCNC(=O)CC[C@H](NC(=O)CCCCCCCCCCCCCCCCC(=O)O)C(=O)O)C(=O)N[C@@H](CCC(N)=O)C(=O)N[C@@H](CCC(N)=O)C(=O)N[C@@H](CCC(=O)O)C(=O)N[C@@H](Cc1ccccc1)C(=O)N[C@H](C(=O)N[C@@H](CCC(=O)O)C(=O)N[C@@H](Cc1c[nH]c2ccccc12)C(=O)N[C@@H](CC(C)C)C(=O)N[C@@H](CC(C)C)C(=O)N[C@@H](C)C(=O)N[C@@H](CCC(N)=O)C(=O)N[C@@H](CCCCN)C(=O)N1CCC[C@H]1C(=O)N[C@@H](CO)C(=O)N[C@@H](CO)C(=O)NCC(=O)N[C@@H](C)C(=O)N1CCC[C@H]1C(=O)N1CCC[C@H]1C(=O)N1CCC[C@H]1C(=O)N[C@@H](CO)C(=O)O)C(C)C)[C@@H](C)CC
B2: AT695 (peptide)
peptide: EGTFISEYSI[Aib]LEKIK([AEEA-AEEA-γGlu-C18 diacid])QQEFVEWLLAQKPSSGAPPPS-OH
modifications: N-terminus assumed
SMILES: CC[C@H](C)[C@H](NC(=O)[C@H](CCCCN)NC(=O)[C@H](CCC(=O)O)NC(=O)[C@H](CC(C)C)NC(=O)C(C)(C)NC(=O)[C@@H](NC(=O)[C@H](CO)NC(=O)[C@H](Cc1ccc(O)cc1)NC(=O)[C@H](CCC(=O)O)NC(=O)[C@H](CO)NC(=O)[C@@H](NC(=O)[C@H](Cc1ccccc1)NC(=O)[C@@H](NC(=O)CNC(=O)[C@@H](N)CCC(=O)O)[C@@H](C)O)[C@@H](C)CC)[C@@H](C)CC)C(=O)N[C@@H](CCCCNC(=O)COCCOCCNC(=O)COCCOCCNC(=O)CC[C@H](NC(=O)CCCCCCCCCCCCCCCCC(=O)O)C(=O)O)C(=O)N[C@@H](CCC(N)=O)C(=O)N[C@@H](CCC(N)=O)C(=O)N[C@@H](CCC(=O)O)C(=O)N[C@@H](Cc1ccccc1)C(=O)N[C@H](C(=O)N[C@@H](CCC(=O)O)C(=O)N[C@@H](Cc1c[nH]c2ccccc12)C(=O)N[C@@H](CC(C)C)C(=O)N[C@@H](CC(C)C)C(=O)N[C@@H](C)C(=O)N[C@@H](CCC(N)=O)C(=O)N[C@@H](CCCCN)C(=O)N1CCC[C@H]1C(=O)N[C@@H](CO)C(=O)N[C@@H](CO)C(=O)NCC(=O)N[C@@H](C)C(=O)N1CCC[C@H]1C(=O)N1CCC[C@H]1C(=O)N1CCC[C@H]1C(=O)N[C@@H](CO)C(=O)O)C(C)C
B3: AT694 (peptide)
peptide: EGTFISEYSIA[Nle]EKIK([AEEA-AEEA-γGlu-C18 diacid])QQEFVEWLLAQKPSSGAPPPS-OH
modifications: N-terminus assumed
SMILES: CCCC[C@H](NC(=O)[C@H](C)NC(=O)[C@@H](NC(=O)[C@H](CO)NC(=O)[C@H](Cc1ccc(O)cc1)NC(=O)[C@H](CCC(=O)O)NC(=O)[C@H](CO)NC(=O)[C@@H](NC(=O)[C@H](Cc1ccccc1)NC(=O)[C@@H](NC(=O)CNC(=O)[C@@H](N)CCC(=O)O)[C@@H](C)O)[C@@H](C)CC)[C@@H](C)CC)C(=O)N[C@@H](CCC(=O)O)C(=O)N[C@@H](CCCCN)C(=O)N[C@H](C(=O)N[C@@H](CCCCNC(=O)COCCOCCNC(=O)COCCOCCNC(=O)CC[C@H](NC(=O)CCCCCCCCCCCCCCCCC(=O)O)C(=O)O)C(=O)N[C@@H](CCC(N)=O)C(=O)N[C@@H](CCC(N)=O)C(=O)N[C@@H](CCC(=O)O)C(=O)N[C@@H](Cc1ccccc1)C(=O)N[C@H](C(=O)N[C@@H](CCC(=O)O)C(=O)N[C@@H](Cc1c[nH]c2ccccc12)C(=O)N[C@@H](CC(C)C)C(=O)N[C@@H](CC(C)C)C(=O)N[C@@H](C)C(=O)N[C@@H](CCC(N)=O)C(=O)N[C@@H](CCCCN)C(=O)N1CCC[C@H]1C(=O)N[C@@H](CO)C(=O)N[C@@H](CO)C(=O)NCC(=O)N[C@@H](C)C(=O)N1CCC[C@H]1C(=O)N1CCC[C@H]1C(=O)N1CCC[C@H]1C(=O)N[C@@H](CO)C(=O)O)C(C)C)[C@@H](C)CC

Target: T1, human GIP receptor
Assay: cell-based or functional assay

Binder | cAMP antagonism % inhib (CisBio assay) [%] | cAMP antagonism nM (IC50, CisBio assay) [nM] | cAMP antagonism pIC50 (CisBio assay)
Glutaryl-GTFISDYSIA[Nle]DKIK(C16 diacid)QQDFVEWLLAQKPSSGAPPPS-OH [AT700] | 89 | 0.708 | 9.2
Glutaryl-GTFISDYSIA[Nle]DKIK([AEEA-AEEA-γGlu-C18 diacid])QQDFVEWLLAQKPSSGAPPPS-OH [AT702] | 85 | 3.55 | 8.5
B1 | 97 | 0.584 | 9.2
B2 | 98 | 0.794 | 9.1
B3 | 88 | 1.47 | 8.8
